In assay [1] the target is T1, FLAG-MALT1 wt (MALT1 Isoform B, overexpressed in Jurkat T cells) (human, UniProt Q9UDY8 2-824).
T1 construct: also called overexpressed FLAG-MALT1 wt; not shown: N-terminal FLAG tag (or HA tag)
T1 sequence: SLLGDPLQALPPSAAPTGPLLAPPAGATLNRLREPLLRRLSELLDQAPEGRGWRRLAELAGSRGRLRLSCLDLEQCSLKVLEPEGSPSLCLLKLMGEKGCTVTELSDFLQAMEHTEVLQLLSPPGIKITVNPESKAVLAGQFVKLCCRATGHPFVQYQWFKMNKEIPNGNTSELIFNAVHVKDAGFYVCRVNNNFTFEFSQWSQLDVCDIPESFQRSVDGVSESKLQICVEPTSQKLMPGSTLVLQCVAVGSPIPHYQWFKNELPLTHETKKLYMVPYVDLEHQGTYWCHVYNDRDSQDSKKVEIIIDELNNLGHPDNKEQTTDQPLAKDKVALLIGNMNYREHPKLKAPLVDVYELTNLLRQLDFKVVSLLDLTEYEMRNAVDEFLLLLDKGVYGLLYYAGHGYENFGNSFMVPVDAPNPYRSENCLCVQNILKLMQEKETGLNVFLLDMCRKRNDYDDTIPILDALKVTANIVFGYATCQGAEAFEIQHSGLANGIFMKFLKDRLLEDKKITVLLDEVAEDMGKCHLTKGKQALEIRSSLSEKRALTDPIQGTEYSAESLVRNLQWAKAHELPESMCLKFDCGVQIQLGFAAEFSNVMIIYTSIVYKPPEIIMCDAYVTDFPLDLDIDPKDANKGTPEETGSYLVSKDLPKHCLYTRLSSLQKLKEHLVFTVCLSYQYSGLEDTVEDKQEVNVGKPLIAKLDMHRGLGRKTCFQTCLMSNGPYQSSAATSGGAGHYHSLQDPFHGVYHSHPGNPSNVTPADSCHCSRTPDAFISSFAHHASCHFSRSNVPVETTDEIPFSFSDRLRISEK
As to the kind of experiment: labeling after lysis and FLAG IP, in-gel fluorescence. The protocol: (§1) Jurkat T cells, transfected with active FLAG-[…] wt or active site mutant C464A, were stained after lysis and IP with probe 2, pre-clicked to TAMRA. Analysis was done by fluorescence staining.
(§2) Cells were lysed in 500 μl co-IP buffer without protease inhibitors (25 mM hepes pH 7.5, 150 mM NaCl, 0.2% NP-40, 10% glycerol, 1 mM DTT, 10 mM sodium fluoride, 8 mM β-glycerophosphate and 300 μM sodium vanadate), centrifuged (14000 rpm, 10 min, 4° C.) and overexpressed FLAG MALT1 was immunoprecipitated by FLAG (M2) antibody for 3 hours at 4° C. PGS was added for 1 h at 4° C., precipitate was washed 2× with co-IP buffer and 1× with 50 mM hepes pH 7.4. Precipitated MALT1 was incubated with 0.3 μM pre-clicked probe 2 (in 20 μl 50 mM hepes pH 7.4) for 50 min at 29° C., mixed with 4× loading dye and boiled for 3 min. After protein separation by SDS PAGE, staining with diagnostic inhibitor was detected by Typhoon Fluorescence Scanner (FITC laser 488 nm/filter 526 SP; TAMRA laser 532 nm/filter 580 BP).

For assay [2], the target named is T2, FLAG-MALT1 active site mutant C464A (C453A in Isoform B) (human, UniProt Q9UDY8 2-824).
T2 construct: Isoform B with C453A; also called MALT1 mutant; not shown: N-terminal FLAG tag (or HA tag)
T2 sequence: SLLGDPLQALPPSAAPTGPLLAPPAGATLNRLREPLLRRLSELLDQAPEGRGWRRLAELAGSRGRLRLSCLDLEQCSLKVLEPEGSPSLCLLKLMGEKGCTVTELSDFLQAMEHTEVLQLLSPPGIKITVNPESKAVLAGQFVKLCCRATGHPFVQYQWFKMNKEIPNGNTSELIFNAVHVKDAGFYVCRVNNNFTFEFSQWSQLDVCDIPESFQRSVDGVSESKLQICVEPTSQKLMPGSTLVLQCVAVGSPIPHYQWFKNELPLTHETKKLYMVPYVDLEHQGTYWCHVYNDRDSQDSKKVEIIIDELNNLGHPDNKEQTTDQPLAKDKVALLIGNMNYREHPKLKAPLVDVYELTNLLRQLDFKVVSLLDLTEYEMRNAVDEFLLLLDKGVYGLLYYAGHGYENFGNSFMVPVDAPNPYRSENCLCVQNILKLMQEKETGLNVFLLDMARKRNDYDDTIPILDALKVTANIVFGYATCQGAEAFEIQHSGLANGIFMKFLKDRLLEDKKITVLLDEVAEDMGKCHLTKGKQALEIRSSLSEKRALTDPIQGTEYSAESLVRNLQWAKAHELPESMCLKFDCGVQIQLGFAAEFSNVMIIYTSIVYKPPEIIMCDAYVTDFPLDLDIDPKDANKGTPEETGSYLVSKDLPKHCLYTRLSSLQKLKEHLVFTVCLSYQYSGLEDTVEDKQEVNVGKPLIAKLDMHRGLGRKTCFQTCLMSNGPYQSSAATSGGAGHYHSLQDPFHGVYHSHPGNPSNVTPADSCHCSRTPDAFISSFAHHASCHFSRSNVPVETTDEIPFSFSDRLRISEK
The assay can be described thus: labeling after FLAG IP, SDS PAGE, fluorescence scanning. The protocol:
as §1, §2

The target in assay [3] is T3, Human cathepsin B (human, UniProt P07858 80-333). The assay can be described thus: extracts of Jurkat T cells labeled with probe 5, in-gel fluorescence.
In assay [4] the target is T3, Human cathepsin B. The assay can be described thus: reduction of the labeled cathepsin B band and in vitro cathepsin B cleavage assay. Here is the method:
0.2 ng cathepsin B together with probe 5, z-VRPR-FMK, mepazine or CA-074 was incubated with 1 mM zRR-AMC substrate for 2 h at 30° C. Assay was performed in 0.1 M sodium acetate pH 5.5, 10 mM DTT and 0.1 mM EDTA. Again, increase of AMC fluorescence is measured in a Synergy 2 Microplate Reader (Biotek).
Importantly, MALT1 was the only inducible band in extracts labeled with probe 5, although some background signals were obtained. […] As expected, Caspase 8 activity was not affected by the diagnostic inhibitors of MALT1 of the present invention. […] In agreement with cross-reaction of the diagnostic MALT1 inhibitors of the present invention and cathepsin B, preincubation of CA-074Me in Jurkat T cells completely abolished detection of the ˜30 kDa signal while inducible MALT1 labeling was unaffected (FIG. 3D). Thus, tetrapeptides that target the active site of MALT1 are also binding to cathepsin B. Since serine (LRSR) or proline (VRPR) at the P2 position is already poorly tolerated by cysteine cathepsins, improvement of the peptide scaffold may be very difficult.

The target in assay [5] is T3, Human cathepsin B. As to the kind of experiment: Jurkat whole cell extract labeled with probe 5 or probe 6, fluorescent scanning. The protocol: FIG. 6: Jurkat T cells were stimulated or not, lysed and whole cell extract was incubated with indicated concentrations of FITC conjugated probe 5 or BODIPY conjugated probe 6 and analyzed via fluorescent scanning. Probe 6 results in slightly higher active MALT1 labeling and cathepsin labeling (open circle) seems to be reduced.
Jurkat T cells (1-2×10⁷), primary human PBMCs or primary human T cells (0.25 or 1×10⁷) were lysed in 150 μl co-IP buffer without protease inhibitors. DLBCL (3×10⁷) were lysed in 250 μl buffer. After centrifugation (14000 rpm, 10 min, 4° C.), 100 μl extract (DLBCL: 200 μl) was stained with probe 5 or probe 6 (3 μM end) for 50 min at 29° C., mixed with 4× loading dye and boiled.

Primed or numbered codes have the meaning given here. The star is where a group is joined. AOMK(5) = C-terminal Arg as acyloxymethyl ketone (dimethyl benzoic acid leaving group), Cc1cccc(C)c1C(=O)OCC(=O)[C@H](CCCNC(=N)N)N*; AOMK(4) = acyloxymethyl ketone (C-terminal covalent warhead); BODIPY(FL) = CC1=CC(C)=[N+]2C1=Cc1ccc(CCC(=O)*)n1[B-]2(F)F; FITC = O=C1OC2(c3ccc(O)cc3Oc3cc(O)ccc32)c2ccc(NC(=S)*)cc21; Butanoyl(4-ethynyl) = C#CCCCC(=O)*

B1: probe 2 (alkyne-LRSR-AOMK), pre-clicked to TAMRA (peptide)
peptide: {N‑TAMRA‑3‑aminopropylazide (click)-Butanoyl(4-ethynyl)}-LRSR-{AOMK(5)}
notes: Covalent activity-based probe; also called TAMRA-LRSR-AOMK
With B1, the values for the binding result in assay [1] and in assay [2] were “binds” and “no binding (tested: 0.3 µM pre-clicked probe 2)”, respectively.

B2: probe 5 (FITC-LRSR-AOMK) (peptide)
peptide: {FITC}-LRSR-{AOMK(4)}
notes: Covalent activity-based probe; also called FITC conjugated probe 5
On to B2, for which, in the assay with Human cathepsin B [3], the binding result is “binds”.

B3: z-VRPR-FMK (peptide)
peptide: VRPR
modifications: not fully specified; N-terminal z group; C-terminal Arg as fluoromethylketone (FMK)
notes: Bought (Alexis Biochemicals)
As for B3, the binding result with Human cathepsin B [4] was “binds”.

B4: probe 6 ((BODIPY-FL)-LRSR-AOMK) (peptide)
peptide: {BODIPY(FL)}-LRSR-{AOMK(5)}
SMILES: CC1=CC(C)=[N+]2C1=Cc1ccc(CCC(=O)N[C@@H](CC(C)C)C(=O)N[C@@H](CCCNC(=N)N)C(=O)N[C@@H](CO)C(=O)N[C@@H](CCCNC(=N)N)C(=O)N[C@@H](CCCNC(=N)N)C(=O)COC(=O)c3c(C)cccc3C)n1[B-]2(F)F
notes: Covalent activity-based probe; also called BODIPY conjugated probe 6; BODIPY probe 6
On to B4, for which the binding result with Human cathepsin B [5] is “binds”.

These data come from patent publication US20160327558A1 (HELMHOLTZ ZENTRUM M NCHEN DEUTSCHES FORSCHUNGSZENTRUM F R …, published 2016).
